Columns and labels:
[1] = biological target: SM083P004 (Clostridium tetani)
[2] = biological target: MTTE peptide (minimal tetanus toxin epitope), biotinylated (Clostridium tetani)

Binder	Kd [1] [nM]	koff [1] [s⁻¹]	kon [1] [M⁻¹ s⁻¹]	Kd [2] [nM]	koff [2] [s⁻¹]	kon [2] [M⁻¹ s⁻¹]
scFv Y-SM083-p04-D04 (scFv) scFv: EVQLLESGGGLVQPGGSLRLSCAASGFTFSGYYMYWVRQAPGKGLEWVSYIGYSGGGTGYADSVKGRFTISRDNSKNTLYLQMNSLRAEDTAVYYCARVPFGAFDYWGQGTLVTVSSGGGGSGGGGSGGGGSDIQMTQSPSSLSASVGDRVTITCRASQSISSYLNWYQQKPGKAPKLLIYAASSLQSGVPSRFSGSGSGTDFTLTISSLQPEDFATYYCQQYYGFPYTFGQGTKLEIK	3.3	0.00043	130000			
14GIIICII-b scFv (scFv) scFv: QVQLQQPGAELVMPGASVNLSCKASGYTFTDYWMHWVKQRPGQGLEWIGEIDPSDNFSNLNQNFRGKATLTVDKSSRTAFLQLSSLTSEDSAVYYCAVEDYWGQGTTLTVSSGGGGSGGGGSGGGGSGGGGSDIVMTQATPSVLVTPGEAVSISCRASRSLLHSNGITYLYWFLQRPGQSPQVLIYRMSNLVSGVPDRFSGSGSGTAFTLRISRVEAEDVGVYYCMQHLEFPYTFGGGTKLEIK				1.8	0.00032	180000
IBIIICI-b scFv (scFv) scFv: EVRLLQSGAALVRPGASVKLSCTASGFNIKDFNIHWVKQRPEQGLEWIGRIDPENGDAEYVPKFQVRATMTTDTSSNTVYLHLSSLTSGDTAVYYCTTGSYDLDVEYWGQGTTLTVSSGGGGSGGGGSGGGGSGGGGSELQMTQSPSSLSASLGDTVTITCHASQNINVWLSWYQQRPGNIPKLLIYKASTLHTGVPSRFRGSGSGTGFTLTISSLQPEDIATYYCQQGQSYPLTFGAGTKLELK				0.52	0.00048	920000

From US20220000998A1
